Laboratory results from patent publication US20210261685A1 (Alector, published 2021).
Numbering of substitutions follows the chain as printed.

B1: MTK-29.15 (antibody, human IgG1, V domains shown)
VH: QVQLVQSGSELKKPGASVKVSCKASSYTFTTYGMSWVRQAPGQGLEWMGWINTMSGVPTYTDDFKGRFVFSLDTSVSTAYLQISSLKAEDTAVYYCARYTNYGVFDYWGQGTLVTVSS
VL: DIQLTQSPSFPSASVGDRVTITCRASSSVGYMHWYQQKPGKAPKLLIYATSNLAQGVPSRFSGSGSGTEFTLTISSLQPEDFATYYCQQWGSLPFTFGQGTKLEIK
B2: MTK-29.10 (antibody, human IgG1, V domains shown)
VH: B1 VH with A24T, M54Y
VL: EIVLTQSPATLSLSPGERATLSCRASSSVGYMHWYQQKPGQAPRLLIYATSNLASGIPARFSGSGSGTDFTLTISRLEPEDFAVYYCQQWGSLPFTFGGGTKLEIK
B3: MTK-29.17 (antibody, human IgG1, V domains shown)
VH: B1 VH with S26G, T28I, T31S, M34L, M54Y, T61A, D62Q, D63G, K65T
VL: B1 VL with P11L, A25S
B4: MTK-29.18 (antibody, human IgG1, V domains shown)
VH: B1 VH with S26G, T28I, T31S, M34L, I51V, M54Y
VL: B2 VL with S28T
B5: MTK-29.16 (antibody, human IgG1, V domains shown)
VH: B1 VH with S26G, T28I, T31S, M34L, I51V, M54Y
VL: B1 VL with P11L, S92R
B6: MTK-29.11 (antibody, human IgG1, V domains shown)
VH: B1 VH with M54D
VL: B2 VL
B7: MTK-33.13 (antibody, human IgG1, V domains shown)
VH: QVQLVQSGAEVKKPGASVKVSCKASGYTFTSYWMHWVRQAPGQGLEWIGVIDPSDNYINYNQKFQGRVTMTRDTSTSTVYMELSSLRSEDTAVYYCAREAGTRGYFDYWGQGTLVTVSS
VL: DIQMTQSPSSLSASVGDRVTITCQASRSVSNTVAWYQQKPGKAPKLLIYYASNRYTGVPSRFSGSGSGTDFTFTISSLQPEDIATYYCQQDYRSPFTFGQGTKLEIK
B8: MTK-33.21 (antibody, human IgG1, V domains shown)
VH: B7 VH with Q65R
VL: B7 VL with D17G, A51V, Y92M
B9: MTK-33.17 (antibody, human IgG1, V domains shown)
VH: B7 VH with D52A, Q65R
VL: B7 VL with Y92M
B10: MTK-33.11 (antibody, human IgG1, V domains shown)
VH: B7 VH with G101W
VL: B7 VL with S30R
B11: MTK-33.10 (antibody, V domains shown)
VH: B7 VH with G26S, T28S, Q65R
VL: B7 VL with S26G, R27Q
B12: MTK-33.7 (antibody, human IgG1, V domains shown)
VH: B7 VH with Q62A
VL: B7 VL with Q24G, R27Q
B13: MTK-33.12 (antibody, V domains shown)
VH: B7 VH with T30V, Q65R
VL: B7 VL with R27Q, Q89R, Y92T, I106L
B14: MTK-33.16 (antibody, human IgG1, V domains shown)
VH: B7 VH with G26W
VL: B7 VL
B15: MTK-33.14 (antibody, human IgG1, V domains shown)
VH: B7 VH with Q65R
VL: B7 VL with R27Q
B16: MTK-33.15 (antibody, human IgG1, V domains shown)
VH: B7 VH with G66V
VL: B7 VL with Y92M
B17: MTK-33.8 (antibody, human IgG1, V domains shown)
VH: B7 VH with G101W, D107N
VL: B7 VL with R27Q, N31R
B18: MTK-33.5 (antibody, human IgG1, V domains shown)
VH: B7 VH with K23M, T30G
VL: B7 VL with R27Q, Y55E, A84G

Target: T1, cyno MerTK extracellular domain (ECD), recombinant (cynomolgus monkey, UniProt Q12866 21-505 (human entry))
T1 construct: also called cynomolgus MerTK; not shown: polyHis tag or TEVS/Thrombin/murine IgG2a Fc tag
T1 chain: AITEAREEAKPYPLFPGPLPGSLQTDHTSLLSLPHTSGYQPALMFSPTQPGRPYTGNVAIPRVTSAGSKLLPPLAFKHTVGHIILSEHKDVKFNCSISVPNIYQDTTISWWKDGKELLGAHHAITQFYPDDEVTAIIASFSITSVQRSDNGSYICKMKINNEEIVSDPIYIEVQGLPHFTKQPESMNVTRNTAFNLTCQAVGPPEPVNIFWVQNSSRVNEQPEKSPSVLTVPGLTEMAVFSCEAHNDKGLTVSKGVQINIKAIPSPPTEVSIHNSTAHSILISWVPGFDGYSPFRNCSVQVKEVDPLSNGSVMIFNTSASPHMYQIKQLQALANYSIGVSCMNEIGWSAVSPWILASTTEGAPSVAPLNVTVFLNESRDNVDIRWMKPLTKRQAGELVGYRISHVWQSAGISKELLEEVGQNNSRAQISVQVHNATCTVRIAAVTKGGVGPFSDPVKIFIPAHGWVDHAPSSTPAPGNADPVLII
Assay: SPR, Carterra LSA, antibody immobilised
Experimental: (§1) Binding kinetics of humanized and affinity-matured anti-MerTK antibodies of the present disclosure to human, murine, and cynomolgus MerTK proteins were evaluated as follows. Briefly, anti-MerTK antibodies were prepared by diluting to 10 μg/ml in 10 mM Acetate, pH 4.25 (Carterra, Salt Lake City, Utah), at 300 μl/well. A HC200M sensor chip (Carterra) was activated using the single channel flow cell with a 7-minute injection of a 1:1:1 mixture of 100 mM MES pH 5.5, 100 mM sulfo-NHS, 400 mM EDC (all reconstituted in MES pH 5.5; 100 μl of each mixed in vial immediately before running assay). After switching to the multi-channel array flow cell, the antibodies were injected over the activated chip in a 96-spot array for 15 minutes. The remaining unconjugated active groups on the chip were then blocked by injecting 1M Ethanolamine pH 8.5 (Carterra) for 7 minutes using the single channel flow cell.
(§2) Estimates of affinity were generated by injecting each analyte over the entire antibody array using the single channel flow cell. MerTK analytes were diluted to 33.3, 100, and 300 nM in running buffer, and injected in serial from lowest to highest concentration without regeneration. Two buffer blanks were run between each series (one species per series). Data were processed and analyzed using NextGenKIT high-throughput kinetics analysis software (Carterra). In these experiments, the anti-MerTK antibodies were human IgG1 isotype containing the Fc variant LALAPS.
(§3) The equilibrium dissociation constants (KD) were then calculated from the fitted association and dissociation rate constants (k-on and k-off) for anti-MerTK antibodies of the present disclosure.
Binder B1 has a Kd of 0.0084 µM. Work on B2 yielded a Kd of 0.0042 µM. B3 gave a Kd of 0.0099 µM. B4 was tested, and the Kd was 0.0049 µM. Work on B5 yielded a Kd of 0.0088 µM. B6 gave a Kd of 0.0024 µM. Binder B7 has a Kd of 0.018 µM. In the case of B8, the Kd is reported as 0.0003 µM. With B9 the Kd was 0.0199 µM. B10 was tested, and the Kd was 0.0101 µM. B11 was tested, and the Kd was 0.038 µM. B12 was tested, and the Kd was 0.078 µM. With B13 the Kd was 0.0079 µM. B14 was tested, and the Kd was 0.0101 µM. B15 showed a Kd of 0.029 µM. B16 showed a Kd of 0.004 µM. B17 showed a Kd of 0.041 µM. For B18, the Kd was 0.026 µM.

What follows are binders tested against T2, murine MerTK extracellular domain (ECD), recombinant (mouse, UniProt Q60805 19-497) (assay: SPR, Carterra LSA, antibody immobilised).
T2 construct: also called moMerTK; mouse MerTK; not shown: polyHis tag or TEVS/Thrombin/murine IgG2a Fc tag
T2 sequence: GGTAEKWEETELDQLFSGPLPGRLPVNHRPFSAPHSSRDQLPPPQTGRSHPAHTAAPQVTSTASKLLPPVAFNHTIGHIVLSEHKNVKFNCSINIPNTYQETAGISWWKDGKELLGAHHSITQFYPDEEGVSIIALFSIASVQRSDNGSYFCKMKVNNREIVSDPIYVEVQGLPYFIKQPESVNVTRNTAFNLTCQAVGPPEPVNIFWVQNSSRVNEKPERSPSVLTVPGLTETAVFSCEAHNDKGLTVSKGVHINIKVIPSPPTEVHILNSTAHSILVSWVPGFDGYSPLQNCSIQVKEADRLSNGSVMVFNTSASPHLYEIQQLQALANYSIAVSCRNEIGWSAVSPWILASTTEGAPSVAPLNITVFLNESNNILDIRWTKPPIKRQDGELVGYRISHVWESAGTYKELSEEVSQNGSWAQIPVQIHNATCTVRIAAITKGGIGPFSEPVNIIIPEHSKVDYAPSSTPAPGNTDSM
Experimental: as §1, §2, §3
B1: no binding (tested: 300 nM). Binder B2 has a Kd of 0.116 µM. For B3, the Kd was 0.17 µM. In the case of B4, the Kd is reported as 0.14 µM. For B5, the Kd was 0.205 µM. Binder B6 has a Kd of 0.059 µM. With B7 the Kd was 0.225 µM. For B8, the Kd was 0.044 µM. B9 showed a Kd of 0.505 µM. B10 was tested, and the Kd was 0.115 µM. B11 gave a Kd of 0.15 µM. Work on B12 yielded a Kd of 0.8 µM. B13 showed a Kd of 0.23 µM. Binder B14 has a Kd of 0.225 µM. B15 showed a Kd of 0.275 µM. B16 showed a Kd of 0.105 µM. In the case of B17, the Kd is reported as 0.465 µM. B18 showed a Kd of 0.14 µM.

These binders were tested against T3, human MerTK extracellular domain (ECD), recombinant (human, UniProt Q12866 21-505) (assay: SPR, Carterra LSA, antibody immobilised).
T3 construct: also called huMerTK; not shown: polyHis tag or TEVS/Thrombin/murine IgG2a Fc tag
T3 sequence: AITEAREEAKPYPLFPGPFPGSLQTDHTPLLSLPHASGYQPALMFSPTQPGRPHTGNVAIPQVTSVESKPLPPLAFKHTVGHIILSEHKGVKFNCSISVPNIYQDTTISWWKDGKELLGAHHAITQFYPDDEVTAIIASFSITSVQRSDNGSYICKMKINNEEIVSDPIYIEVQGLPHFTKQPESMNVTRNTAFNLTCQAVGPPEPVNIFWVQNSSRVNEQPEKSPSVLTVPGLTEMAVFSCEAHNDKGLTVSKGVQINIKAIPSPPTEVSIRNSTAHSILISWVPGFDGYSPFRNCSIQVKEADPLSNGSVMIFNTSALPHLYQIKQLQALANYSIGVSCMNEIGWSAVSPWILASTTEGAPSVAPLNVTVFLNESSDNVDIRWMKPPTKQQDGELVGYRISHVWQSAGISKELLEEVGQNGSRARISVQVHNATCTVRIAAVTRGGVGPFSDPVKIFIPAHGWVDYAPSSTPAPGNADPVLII
Experimental: as §1, §2, §3
B1 gave a Kd of 0.0074 µM. B2 gave a Kd of 0.0045 µM. With B3 the Kd was 0.0096 µM. With B4 the Kd was 0.0047 µM. B5 was tested, and the Kd was 0.0086 µM. B6 was tested, and the Kd was 0.0021 µM. Binder B7 has a Kd of 0.02 µM. For B8, the Kd was 0.0004 µM. Work on B9 yielded a Kd of 0.0204 µM. In the case of B10, the Kd is reported as 0.011 µM. For B11, the Kd was 0.041 µM. For B12, the Kd was 0.078 µM. B13 gave a Kd of 0.0086 µM. In the case of B14, the Kd is reported as 0.0109 µM. B15 was tested, and the Kd was 0.0305 µM. With B16 the Kd was 0.0046 µM. B17 showed a Kd of 0.041 µM. Binder B18 has a Kd of 0.028 µM.
